Experimental findings from publication PMC5291247 are described below.

Several values for one entry are separate records, joined by “and”; a condition that tells them apart may be missing. Equal entries are not always repeated.

The target of test [1] is Vps75 from which native cysteine residues had been removed (yeast (S. cerevisiae in the introduction)) (UniProt P53853). The test can be described thus: cross-linking; Vps75 titrated with H3-H4 at 200 mM NaCl, 20 mM HEPES pH 7.5; 30 min room temperature, 2 mM BS2G for 1 h, SDS-PAGE.
The target is the same in test [2]. Briefly: SEC-MALS + cross-linking; partial DTSSP cross-linking at 200 mM NaCl, 20 mM HEPES pH 7.5 (Vps75 alone, or Vps75 dimers and H3-H4 dimers 1:1, 10 uM); SEC-MALS on Superdex 200 10/300 GL at 400 mM NaCl, 20 mM HEPES-KOH pH 7.5; fractions on SDS-PAGE with and without DTT. On the technique in general: Size exclusion chromatography separates by hydrodynamic size, large species first.

Test [3] has the same target. The test can be described thus: cross-linking; cross-linking analysis of Vps75 with Asf1 and H3-H4, SDS-PAGE (Supplementary Figure S4).

The term stoichiometry N denotes the number of molecules, sites or subunits per partner or assembly. Turning to “Vps75 from which native cysteine residues had been removed (from UniProt P53853 1-264) (natural protein)”, the stoichiometry N in test [1] was 4; in test [2], 4 and 2.

Consider “histones H3–H4 from which native cysteine residues had been removed (from UniProt P84233 1-136; P62799 1-103) (complex)”, for which the stoichiometry N (Vps75 monomers per H3-H4 dimer) in test [3] came out at 2.
